Source: paper PMC7349057

What was measured:
[1] = immunocytochemistry of internalised VEGFR2, BSA vs VEGF; conditions: glycan lost; control: ∆21-121 EMCN
[2] = cell surface biotinylation, VEGFR2 western blot, hEMCN knockdown HRECs; conditions: glycan lost; control: ∆21-121 EMCN

B1: mouse EMCN (mEMCN, endomucin): N-Mut (protein)
parent chain: MRLLQATVLFFLLSNSLCHSEDGKDVQNDSIPTPAETSTTKASVTIPGIVSVTNPNKPADGTPPEGTTKSDVSQTSLVTTINSLTTPKHEVGTTTEGPLRNESSTMKITVPNTPTSNANSTLPGSQNKTENQSSIRTTEISVTTQLLDALPKITATSSASLTTAHTMSLLQDTEDRKIATTPSTTPSYSSIILPVVIALVVITLLVFTLVGLYRICWKRDPGTPENGNDQPQSDKESVKLLTVKTISHESGEHSAQGKTKN
For B1, the “other: rescue of VEGF-induced VEGFR2 internalisation, other: VEGFR2-positive pixels per cell” value [1] was “abolishes” and the “other: rescue of VEGF-induced VEGFR2 internalisation” value [2] was “abolishes”.
